# Test results published in IntAct's records for PubMed 16325581.
# B1: SH3 domain-binding protein 4 (Homo sapiens), Q9P0V3 (parent)
# chain: MAAQRIRAANSNGLPRCKSEGTLIDLSEGFSETSFNDIKVPSPSALLVDNPTPFGNAKEVIAIKDYCPTNFTTLKFSKGDHLYVLDTSGGEWWYAHNTTEMGYIPSSYVQPLNYRNSTLSDSGMIDNLPDSPDEVAKELELLGGWTDDKKVPGRMYSNNPFWNGVQTNPFLNGNVPVMPSLDELNPKSTVDLLLFDAGTSSFTESSSATTNSTGNIFDELPVTNGLHAEPPVRRDNPFFRSKRSYSLSELSVLQAKSDAPTSSSFFTGLKSPAPEQFQSREDFRTAWLNHRKLARSCHDLDLLGQSPGWGQTQAVETNIVCKLDSSGGAVQLPDTSISIHVPEGHVAPGETQQISMKALLDPPLELNSDRSCSISPVLEVKLSNLEVKTSIILEMKVSAEIKNDLFSKSTVGLQCLRSDSKEGPYVSVPLNCSCGDTVQAQLHNLEPCMYVAVVAHGPSILYPSTVWDFINKKVTVGLYGPKHIHPSFKTVVTIFGHDCAPKTLLVSEVTRQAPNPAPVALQLWGKHQFVLSRPQDLKVCMFSNMTNYEVKASEQAKVVRGFQLKLGKVSRLIFPITSQNPNELSDFTLRVQVKDDQEAILTQFCVQTPQPPPKSAIKPSGQRRFLKKNEVGKIILSPFATTTKYPTFQDRPVSSLKFGKLLKTVVRQNKNHYLLEYKKGDGIALLSEERVRLRGQLWTKEWYIGYYQGRVGLVHTKNVLVVGRARPSLCSGPELSTSVLLEQILRPCKFLTYIYASVRTLLMENISSWRSFADALGYVNLPLTFFCRAELDSEPERVASVLEKLKEDCNNTENKERKSFQKELVMALLKMDCQGLVVRLIQDFVLLTTAVEVAQRWRELAEKLAKVSKQQMDAYESPHRDRNGVVDSEAMWKPAYDFLLTWSHQIGDSYRDVIQELHLGLDKMKNPITKRWKHLTGTLILVNSLDVLRAAAFSPADQDDFVI
# B2: SH3 domain-binding protein 4 (Homo sapiens), Q9P0V3 (parent)
# chain: B1 chain
# partner: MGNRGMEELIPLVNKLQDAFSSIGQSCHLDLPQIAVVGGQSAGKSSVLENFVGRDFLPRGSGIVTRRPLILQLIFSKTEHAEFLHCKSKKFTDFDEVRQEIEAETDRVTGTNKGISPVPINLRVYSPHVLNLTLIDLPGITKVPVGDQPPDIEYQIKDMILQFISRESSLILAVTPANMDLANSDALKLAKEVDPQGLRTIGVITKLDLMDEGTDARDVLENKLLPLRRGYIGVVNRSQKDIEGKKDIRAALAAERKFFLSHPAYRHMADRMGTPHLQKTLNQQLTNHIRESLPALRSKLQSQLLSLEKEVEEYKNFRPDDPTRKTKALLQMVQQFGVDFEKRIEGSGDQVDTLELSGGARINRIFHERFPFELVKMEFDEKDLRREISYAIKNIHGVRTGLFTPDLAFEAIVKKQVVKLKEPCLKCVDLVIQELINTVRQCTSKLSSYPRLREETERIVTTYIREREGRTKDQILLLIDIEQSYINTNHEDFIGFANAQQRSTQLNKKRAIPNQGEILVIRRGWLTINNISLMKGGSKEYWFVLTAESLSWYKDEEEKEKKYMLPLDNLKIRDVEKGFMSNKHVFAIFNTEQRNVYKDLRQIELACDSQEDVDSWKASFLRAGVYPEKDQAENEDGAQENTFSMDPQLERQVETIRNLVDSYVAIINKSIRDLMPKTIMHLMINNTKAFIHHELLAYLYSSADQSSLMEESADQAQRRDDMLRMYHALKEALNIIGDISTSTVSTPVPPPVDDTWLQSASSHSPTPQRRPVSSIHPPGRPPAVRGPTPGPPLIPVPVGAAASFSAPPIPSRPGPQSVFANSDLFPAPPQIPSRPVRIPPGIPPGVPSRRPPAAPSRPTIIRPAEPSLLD
# Variants of: B1
# Conditions: with tfr1_human TFRC
row,Variant,effect of a mutation on the interaction
1,W92A,disrupting interaction

# Variants of: B2
# Conditions: with dyn2_human DNM2, P50570
row,Variant,effect of a mutation on the interaction
1,W92A,disrupting interaction
